Results on 167 variants are retold here after the RNAGym collection of RNA variant scans (doi:10.7554/elife.90254).

To fix the notation:
B1: LINE1-full (parent)
chain: UACGUAGGUGGUUUUCCCCUGAUAGUGCUAAGGGGGCCUGGAAGUUUGGACUGGGCAGAGCUCAACACAGCGUGGCAAAGUGGCUGUGGCUAGACUGCCUCUCUGGAUUCCUCGUCACUCAGCAGGGCAUCUCUGAGAGAAAUGCC

In the series the parent is B1. Nature of the series: self-cleavage, relative activity (ratio to wild type); higher = more cleavage; in vitro, sequencing; the parent is a self-cleaving ribozyme.
For the variant U52A A138G, the self-cleavage worked out at 1.57.

A50U U102C: the self-cleavage turned out to be 1.17.

On to A50U U102A, for which the self-cleavage came out at 1.63.

As to G49C A140G, the self-cleavage is 1.51.

As to A50G U134C, the self-cleavage came to 0.86.

For A50G U134G, the self-cleavage was found to be 0.19.

Turning to A50G U100C, the self-cleavage stood at 0.98.

On to U52C C98G, for which the self-cleavage came to 0.17.

Turning to U52A U108C, the self-cleavage came out at 1.66.

For C51G U62C, the self-cleavage is 0.08.

As for U52A C123U, the self-cleavage was 1.11.

As to U52C U143C, the self-cleavage is 1.67.

As for U52C U143G, the self-cleavage came to 1.6.

U52A U134A: the self-cleavage is 1.04.

With U52A U134C, the self-cleavage is 2.25.

With A50C A136C, the self-cleavage came to 2.04.

With A50G A124G, the self-cleavage turned out to be 0.51.

On to A50G A124U, for which the self-cleavage amounted to 0.79.

Consider A50C U109C, for which the self-cleavage was determined as 0.97.

In the case of A50U C63A, the self-cleavage was determined as 0.

A50U C63U: the self-cleavage is 0.2.

Regarding A50G G60A, the self-cleavage turned out to be 0.04.

Consider U52A U130C, for which the self-cleavage was 1.42.

On to A50U A65G, for which the self-cleavage is 0.06.

Take A50G A78C: the self-cleavage turned out to be 0.

As to U52G A64G, the self-cleavage came to 0.32.

Consider U52G A64U, for which the self-cleavage was found to be 0.7.

Regarding U52C A121U, the self-cleavage turned out to be 1.5.

For the variant U52C U87G, the self-cleavage amounted to 0.

Regarding U52C U87A, the self-cleavage is 0.08.

As for C51U U62A, the self-cleavage is 0.07.

For the variant A50C A67G, the self-cleavage came out at 0.62.

As to A50G G89A, the self-cleavage stood at 0.06.

Take U52A A141C: the self-cleavage was 1.48.

Consider U52A A141U, for which the self-cleavage was determined as 1.35.

As to U52A U104A, the self-cleavage was 2.03.

For the variant U52A U104C, the self-cleavage worked out at 1.36.

In the case of U52A U104G, the self-cleavage came to 1.53.

Turning to U52A A107G, the self-cleavage was 0.98.

Regarding C51A A107U, the self-cleavage was 1.3.

For C51U C131A, the self-cleavage turned out to be 1.23.

For U52A U81A, the self-cleavage came to 1.49.

As to A50U A77U, the self-cleavage is 0.83.

Take A50U A77G: the self-cleavage was found to be 0.43.

Regarding C51U U104A, the self-cleavage was determined as 1.02.

In the case of U52C A57G, the self-cleavage was determined as 0.4.

Turning to U52C A57U, the self-cleavage stood at 0.08.

Consider A50G A138U, for which the self-cleavage was 0.95.

U52C U119C: the self-cleavage was determined as 1.86.

Consider U52A A121G, for which the self-cleavage amounted to 1.74.

Consider C51U U85C, for which the self-cleavage is 0.19.

As for U52C C111A, the self-cleavage came to 1.14.

Take A50G G139U: the self-cleavage was found to be 0.37.

In the case of G49U U81C, the self-cleavage worked out at 1.54.

Regarding U52G G72A, the self-cleavage stood at 0.

Turning to U52C A124U, the self-cleavage amounted to 1.48.

Regarding U52C A124G, the self-cleavage was 0.48.

With A50G C63A, the self-cleavage came to 0.02.

On to U52A A79G, for which the self-cleavage was 1.09.

Take G49A A138G: the self-cleavage worked out at 1.11.

As to U52A U102A, the self-cleavage came to 1.03.

Turning to G49U U143C, the self-cleavage came out at 0.84.

Take A50U G74U: the self-cleavage is 1.04.

For U52A U87C, the self-cleavage was 0.29.

With A50U U52A, the self-cleavage stood at 1.17.

For A50U U52C, the self-cleavage came out at 0.89.

Consider C51U A142C, for which the self-cleavage is 1.25.

On to C51U A142G, for which the self-cleavage came out at 1.7.

In the case of U52A G135C, the self-cleavage stood at 1.82.

Consider U52C G137A, for which the self-cleavage came to 0.89.

For the variant A50C U143C, the self-cleavage worked out at 0.82.

With C51U A129U, the self-cleavage came to 1.63.

Turning to C51U A117C, the self-cleavage came out at 1.28.

As for C51U A117G, the self-cleavage stood at 1.5.

With U52C C146U, the self-cleavage was found to be 2.19.

As to U52C A79G, the self-cleavage was 0.75.

For the variant A50U U143A, the self-cleavage was determined as 1.47.

As to C51A C111U, the self-cleavage was 1.07.

Consider G49A U108C, for which the self-cleavage is 1.54.

For the variant A50G A142G, the self-cleavage turned out to be 0.9.

Take A50G A142C: the self-cleavage is 1.07.

As for A50U A140U, the self-cleavage worked out at 0.92.

Turning to U52G C110G, the self-cleavage was determined as 1.31.

Regarding A50G G125A, the self-cleavage was found to be 0.39.

Regarding A50U A124U, the self-cleavage was 1.11.

In the case of A50G G74A, the self-cleavage was found to be 0.48.

Take U52C G72U: the self-cleavage was found to be 0.41.

Regarding A50G A117U, the self-cleavage came to 0.91.

A50G A117G: the self-cleavage came out at 1.97.

With U52A A67G, the self-cleavage was determined as 0.38.

For the variant U52A A67U, the self-cleavage amounted to 0.05.

For U52C U132A, the self-cleavage amounted to 1.88.

For U52C U132G, the self-cleavage was 1.93.

Regarding U52A A94G, the self-cleavage came out at 0.33.

For the variant U52A A94U, the self-cleavage was determined as 0.52.

For the variant G49A C133G, the self-cleavage amounted to 1.39.

As to U52A C84U, the self-cleavage is 0.14.

For A50G U104A, the self-cleavage turned out to be 0.85.

On to U52C A141U, for which the self-cleavage was determined as 1.14.

Take U52C A141G: the self-cleavage is 1.25.

Take U52G U62C: the self-cleavage came to 0.09.

A50G C118U: the self-cleavage is 0.71.

A50G U112A: the self-cleavage is 1.02.

In the case of C51A U96A, the self-cleavage worked out at 0.11.

Consider U52C G58U, for which the self-cleavage is 0.04.

With U52C A92U, the self-cleavage was found to be 0.52.

Consider U52C A92C, for which the self-cleavage came to 0.

On to U52G C101U, for which the self-cleavage worked out at 1.55.

As for A50G A69C, the self-cleavage stood at 0.

Turning to U52A U100A, the self-cleavage is 1.29.

As to C51U G89U, the self-cleavage came to 0.03.

As to A50U C111U, the self-cleavage was determined as 0.77.

For the variant A50U A141G, the self-cleavage was 0.68.

Regarding U52C A59G, the self-cleavage came out at 0.16.

Take U52A A69G: the self-cleavage came to 0.71.

Consider G49U C95G, for which the self-cleavage was found to be 0.04.

In the case of G49A U85C, the self-cleavage was 0.1.

Take A50U U134A: the self-cleavage worked out at 0.92.

Regarding A50U U134C, the self-cleavage is 0.98.

U52C G125U: the self-cleavage amounted to 1.15.

For the variant A50G C90G, the self-cleavage is 0.06.

In the case of A50G U115C, the self-cleavage amounted to 1.42.

In the case of A50G U115A, the self-cleavage was determined as 0.95.

Consider U52C C113U, for which the self-cleavage was found to be 0.99.

Regarding G49A A142G, the self-cleavage came to 0.98.

A50U U62A: the self-cleavage amounted to 0.01.

On to C51U A78U, for which the self-cleavage worked out at 2.19.

Turning to C51U A78G, the self-cleavage was found to be 1.09.

With A50U U85C, the self-cleavage stood at 0.14.

Regarding A50C A64U, the self-cleavage worked out at 0.4.

As for A50C A64G, the self-cleavage was determined as 0.63.

As for U52A A65U, the self-cleavage turned out to be 0.21.

Take U52A A65G: the self-cleavage was 0.04.

With C51U G127A, the self-cleavage was 1.35.

Take A50G C99U: the self-cleavage amounted to 0.43.

As to U52C A107U, the self-cleavage is 1.63.

As to A50G U102G, the self-cleavage was 0.51.

Consider C51U A57G, for which the self-cleavage came out at 0.17.

A50G C95A: the self-cleavage was found to be 0.05.

For A50G C95U, the self-cleavage was determined as 0.03.

Turning to A50G U52A, the self-cleavage amounted to 0.91.

As for U52C G127A, the self-cleavage turned out to be 0.93.

As to A50U A64G, the self-cleavage is 0.16.

As for C51U A124U, the self-cleavage stood at 2.12.

With A50G U62A, the self-cleavage was 0.09.

For the variant A50G U62C, the self-cleavage is 0.1.

Turning to A50G U62G, the self-cleavage is 0.1.

On to U52C A65G, for which the self-cleavage was 0.07.

With A50G G114A, the self-cleavage was 0.98.

On to A50G G97A, for which the self-cleavage was 0.06.

As for A50U U119A, the self-cleavage was 0.83.

Take A50U U119C: the self-cleavage came to 1.47.

Regarding A50G U132A, the self-cleavage is 1.34.

For the variant A50G U132G, the self-cleavage is 1.15.

As to A50G A64U, the self-cleavage was found to be 0.39.

For A50G A64G, the self-cleavage was determined as 0.42.

For A50G A64C, the self-cleavage came to 0.37.

Turning to U52C A64C, the self-cleavage worked out at 0.51.

Regarding A50C U87C, the self-cleavage amounted to 0.13.

In the case of C51U U119C, the self-cleavage is 1.73.

Take U52C G144A: the self-cleavage was found to be 1.73.

Take U52G A67G: the self-cleavage stood at 0.64.

For U52G G58A, the self-cleavage was determined as 0.09.

Turning to C51G U96A, the self-cleavage turned out to be 0.05.

As for A50G, the self-cleavage is 0.9.

As to A50C, the self-cleavage was determined as 1.34.

As to A50U, the self-cleavage was 1.
